The source of these data is patent publication US20240166768A1 (YEDA RESEARCH AND DEVELOPMENT, published 2024).

One may read the EC50 (read off the curve) as the concentration that produces a half-maximal response. Read a low EC50 (read off the curve) as a more potent agent.

For one test, the target named is BSA (bovine, UniProt P02769). Nature of the test: ELISA heatmap, OD630. The procedure: ELISA reactions were carried out using flat-bottom MaxiSorp™ 96-well plates (Invitrogen). Antigen coating was performed in PBS at 1001 per well and left overnight at 4° C. For standard dose response ELISA assays, antigens were plated at a concentration of 1 μg/ml. For comparative ELISA assays with multiple antigen targets, antigens were plated at a constant molar concentration of 50 nM. The plates were washed 5 times with washing buffer (1×PBS with 0.05% Tween-20 (Sigma-Aldrich)) and incubated with 1001 blocking buffer (1×PBS with 1% BSA) for 1 h at room temperature. The blocking solution was subsequently replaced by serial dilutions of either mono- or polyclonal antibodies or serum samples for 2.5 h at RT. For standard dose response ELISA assays, antibodies were introduced over a range of dilutions whereas for ELISA screens, antibodies were introduced at 100 nM. Serum samples were assayed at a dilution of 1:100. Plates were washed 5 times with washing buffer and then incubated with anti-human IgG secondary antibody conjugated to horseradish peroxidase (HRP) (Jackson Immuno Research) in PBS at a 1:5,000 dilution. After washing the plates for additional 5 times, the plates were developed using TMB (Thermo Fisher) and absorbance was measured at 630 nm with an ELISA microplate reader (Synergy HTX plate reader, Biotek).
Strikingly, in 3/4 patients, monoclonal antibodies that bound MMP14 with various degrees of effectiveness and specificity were detected, confirming the analysis using polyclonal patient-derived antibodies. In order to further examine the specificity of the monoclonal antibodies, the binding activity of the antibodies was tested in different dilutions by ELISA.

The target of test [1] is T1, ROI-1 peptide of MMP14 (I-A loop).
T1 construct: also called 'ROI-peptide'; 'Peptide (ROI)'
Nature of the test: peptide validation ELISA: antibody plated, biotinylated peptide titrated, streptavidin-HRP; the concentration is that of the peptide.

BSA, sequence (P02769 25-607 limits assumed): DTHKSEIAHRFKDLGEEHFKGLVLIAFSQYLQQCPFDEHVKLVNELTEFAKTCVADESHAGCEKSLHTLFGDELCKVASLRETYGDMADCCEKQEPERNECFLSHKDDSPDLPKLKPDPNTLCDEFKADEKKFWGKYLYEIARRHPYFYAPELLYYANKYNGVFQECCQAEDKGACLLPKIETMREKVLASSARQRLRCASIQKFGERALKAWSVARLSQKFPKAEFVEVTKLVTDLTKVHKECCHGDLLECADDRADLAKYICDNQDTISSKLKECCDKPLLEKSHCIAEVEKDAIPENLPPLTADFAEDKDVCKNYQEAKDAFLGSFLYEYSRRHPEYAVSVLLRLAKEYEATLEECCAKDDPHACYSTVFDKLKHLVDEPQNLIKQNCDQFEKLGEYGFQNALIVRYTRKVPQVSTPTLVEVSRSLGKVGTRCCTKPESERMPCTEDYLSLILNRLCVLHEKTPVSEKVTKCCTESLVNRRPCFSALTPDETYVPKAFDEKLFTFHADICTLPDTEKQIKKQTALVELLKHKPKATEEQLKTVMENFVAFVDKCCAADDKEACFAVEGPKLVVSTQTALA

B1: T6 (antibody, V domains shown)
VH: QVQLQQSGPGLVKPSQTLSLTCAISGDSVSSNSAAWNWIRQSPSRGLEWLGRTYYRSRWYSDYAFSVRSRIIVKADTSRNLFSLQLNSMTPEDTAIYYCARDLGIAAADWFDSWGQGTLVTVSS
VL: EIVMTQSPATLSVSPGDRATLSCRASQSVSNRLAWYQQKPGQAPRLLIYDASTRATDIPARFSGSGSGTEFTLTISSLQSEDFAIYFCHQYHNWPGFGPGTKLEIK
In the case of B1, the binding result with BSA is “no binding (tested: 100 nM)”.

B2: T2 (antibody, V domains shown)
VH: QVQLVQSGAEVKKPGASVNVSCKASGYNFKAYGVGWVRQAPGQGLEWMGWITPYNGKTNYAQKIQGRVTMTTDTSTTTAYMELRSLQPDDTAMYFCARTPAALASFDYWSQGTLVTVSS
VL: DIQMTQSPSTLSASVGDRVTITCRASQSISSWLAWYQQKAGKAPKLLIFDASTLQSGVPSRFSGSGSGTEFSLTISSLQPDDFATYYCQQYYSYSTFGQGTKVEIR
Regarding B2, the binding result with BSA is “no binding (tested: 100 nM)”.

B3: T14 (antibody, human IgG1, V domains shown)
VH: EVQLVESGGGLVQPGGSLRLSCAVSGFTFNNYWMTWVRQAPGKGLEWVANIKGDGSEKTYVDSVKGRFTVSRDNANNSLHLQMKSLRAEDTAVYYCARVGGGDYYDSSGYYWLDTWGQGTLVTVSS
VL: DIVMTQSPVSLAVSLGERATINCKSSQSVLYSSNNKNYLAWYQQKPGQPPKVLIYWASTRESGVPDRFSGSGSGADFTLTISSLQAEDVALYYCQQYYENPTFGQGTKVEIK
Consider B3, for which the binding result with BSA is reported as “no binding (tested: 100 nM)”.

B4: T5 (antibody, V domains shown)
VH: QVQLVESGGGVVQPGRSLRLSCAASGFTFSSHAMHWVRQAPGKGLQWVALISYDGYNKYYAESVQGRFTLSRDNSKNTLYLQMNSLRAEDTAVYYCARDRDSSGYIFDYWGQGTLVTVSS
VL: DIQMTQSPSSLSASVGDRVTITCQASQDISNYLNWYQQKPGKAPKVLIYDASNLERGVPSRFSGSGSGTAFTFTISSLQPEDIATYYCQQYDNLPSFGGGTKVEIK
In the case of B4, the binding result in the test with BSA is “no binding (tested: 100 nM)”.

B5: T20 (antibody, V domains shown)
VH: QVQLQESGPGLLKPSQTLSLTCTVSGAFLNSGGYYWTWIRQHPGKGLEWIGYIYYSGTTYYNPSLKSRVTISVDTSKNQFSLNVNSVIAADTAVYYCARAPRIPFGEVIGGAAFDVWGQGTTVIVSS
VL: EIVLTQSPGTLSLSPGERATLSCRASQSVTSNFVGWYQQKPGQAPRLLIYAASSRPTGIPERFSGSGSGTDFTLTISRLEPEDFAVYYCEQYGSSPRTFGPGTKVEIK
On to B5, for which, in the test with BSA, the binding result is given as “no binding (tested: 100 nM)”.

B6: T21 (antibody, V domains shown)
VH: QVQLQESGPGLVKPSQTLSLTCTVSGGSFSNSNYYWSWIRQPAGKGLEWIGHIYASAITHYNPSLKSRVTISKDTSKNQFSLNLRSVTAADTAVYFCARGFRLAAEAYYHGMDVWGQGTTVTVSS
VL: DIQMTQSPSSLSASVGDRVTITCRASQSINNFLNWYQQKPGKAPKLLIYGASSLQSGVPSRFSASGSGTDFSLTISGLIPEDFAIYYCQQSDTTPWTFGQGTKVDIK
Take B6: the binding result with BSA is on record as “no binding (tested: 100 nM)”.

B7: T15 (antibody, human IgG1, V domains shown)
VH: EVQLVESGGGLVQPGGSLRLSCAASGFTFNNYWMTWVRQAPGKGLEWVANVNQDGNEKNYVDSVRGRFTISRDNAKNSLHLQMKSLISDDTAVYYCARVGGGDYYDSSGYYWFDTWGQGALVTVSS
VL: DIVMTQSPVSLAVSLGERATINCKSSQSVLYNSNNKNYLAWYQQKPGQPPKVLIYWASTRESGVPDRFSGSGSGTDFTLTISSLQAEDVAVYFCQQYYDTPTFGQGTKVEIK
For the molecule B7, the binding result with BSA was “no binding (tested: 100 nM)”.

B8: T29 (antibody, V domains shown)
VH: QLQLQESGPGLVKPSETLSLTCTVSGGSISSSSYYWGWIRQPPGKGLEWIGSLSYTGSTYYNPSLKSRVTISLDTSKNQFSLKLSSVTAADTAVYYCARESGSGGTHTDSWGQGTLVSVSS
VL: QSVLTQPPSVSAAPGQKVTISCSGSSSNIGNNYVSWYQQLPGTAPKLLIYDNNKRPSGIPDRFSGSKSGTSATLGISGLQTGDEADYYCGTWDSSLSAWVFGGGTKLTVL
With B8, the binding result with BSA was “no binding (tested: 100 nM)”.

B9: T4 (antibody, V domains shown)
VH: QVQLVQSGGEVKKPGASAKVSCKTSGFTFTSYGISWVRQAPGQGLEWMGWINTYNGNTKYAQRLQGRVSMTTDTSTNTAYMELRSLRSDDTAVYYCARGQGRYGDYIYNHWGQGTLVIVSS
VL: DIQMTQSPSTLSASVGDRVTITCRASQIISSWVAWYQQRPGKAPKLLIFDASILESGVPSRFSGSATGTEFSLTISGLQPDDFATYYCQHYNDFPLSFGGGTKVEIK
On to B9, for which the binding result with BSA was “no binding (tested: 100 nM)”.

B10: T17 (antibody, V domains shown)
VH: EVQLVESGGGLVQPGGSLTLSCTASGFTYFGFAMTWVRQPPGKGLEWISSINLLSGTTYYVDSVKGRFTISRDNSKNTVFLQMKGLTAEDTAVYYCAKVGATQDLHYFDFWGQGTLVTVSS
VL: DIQMTQSPSTLSASVGDRVTITCRASQSVYRWLAWYQQKPGEAPKLLVYGAFSLQSGVPPRFSGSGYGTEFTLTISSLQPDDFATYYCQQYNSHSTFGQGTKVEVK
As to B10, the binding result in the test with BSA is given as “no binding (tested: 100 nM)”.

B11: T22 (antibody, V domains shown)
VH: QVQLVQSGAEVKKPGSSVKVACKASGGTFSRSAISWVRQAPGQGLEWMGGIIRIFNTADYAQKFQGRVTMSADESTSTAYMELSSLRSEDTAVYYCATSSLSDIVVAEGAFVDHYFGMDVWGQGTTVTVSS
VL: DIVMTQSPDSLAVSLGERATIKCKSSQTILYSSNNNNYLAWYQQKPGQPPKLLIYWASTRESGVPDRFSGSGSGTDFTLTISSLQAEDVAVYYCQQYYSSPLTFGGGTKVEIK
Regarding B11, in the test with BSA, the binding result was “no binding (tested: 100 nM)”.

B12: T24 (antibody, V domains shown)
VH: QLQLQESGSGLVKPSQTLSLTCAVSGGSISSSDYSWSWIRQPPGKGLEWIGYIYHSGNTYYNPSVKSRVTISLDSSKNHFSLTLTSVTAADTAIYYCARDPGGNSGWFDPWGQGALVTVSS
VL: SYELTQPTSVSVSPGQTARITCSGDALPSQYAYWYQQKPGQAPILIIYKDNKRPSGIPERFSGSSSGTRVTLTISGVQPEDEADYYCQSADRSGRYVFGTGTRVPVL
Turning to B12, the binding result with BSA is recorded as “no binding (tested: 100 nM)”.

B13: T13 (antibody, V domains shown)
VH: EVQLVESGGGLVQPGGSLRLSCAASGFIFSKHDMYWVRQRPGKGLEWVSRIGDAGDTYYAGSVKGRFTIFRENAKNTLYFQMNRLTDGDTAVYYCGRGMAVAGFPLDVWGRGTRVTVTS
VL: EIVMTQSPATLSVSPGERATLSCRASQNIHINLAWYQQKPGQAPRLIIYAASTRAAGIPARFSASGSGTEFTLTISSLQSEDFAVYYCQQFNPWSPWTFGQGTKVEVK
notes: The digit 1 is dropped in many places of the text; also called mAb T13
Consider B13, for which, in test [1], the concentration for a half-maximal effect (EC50 (read off the curve)) was approximately 2 µg/mL.

B14: T26 (antibody, V domains shown)
VH: QVQLVQSGSEVKKPGASVKVSCKASGYTFTSNGISWVRQAPGQGLEWMGWISAYNGNTNYAQKFQGRVSLTTDTSTSTAYMELRNLTSDDTARYYCARSRGHYGDYLYGYWGQGTLVTVSS
VL: QSVLTQPPSVSGAPGQRVTISCTGSSSNIGAGYDVHWYQQLPGTAPKLLIHGNSNRPSGVPDRFSGSKSGTSASLAITGLQAEDEADYYCQSFDSSLSGSVVFGGGTKLTVL
Regarding B14, the binding result in the test with BSA is “no binding (tested: 100 nM)”.

B15: T18 (antibody, V domains shown)
VH: EVQLVESGGGLVQPGGSLRLSCAASGFTFSSYWMTWVRQAPGKGLEWVANIKPDGSEKNYVDSVKGRFTISRDNAENSLYLQMNSLRAEDTAVFYCARDLRYCSSTSCSPALDYWGQGTLLTVSS
VL: DIQMTQSPSSLSASVGDRVTITCRASQSIASYLNWYQQKPGRAPKLLIYAASTSGVPSRFSGSGSGTDFTLTISSLQPEDFATYYCQQSYTTPRTFGQGTKVEIK
With B15, in the test with BSA, the binding result is given as “no binding (tested: 100 nM)”.

B16: T25 (antibody, V domains shown)
VH: EVQLVESGGGLVKPGGSLRLSCAPSGFIFSNTWMSWVRQAPGKGLEWVGHIKSKADGGTTDYAAPVKGRFTISRDDSRNTLYLQMDSLKTEDTGVYYCTTGWYSTLDYWGQGTLVTVSS
VL: QSVLTQPPSASGTPGQRVTISCSGSTSNVGTNYVYWCQQFPGAAPKLLMYRNDRRPSGVPDRFSGSKSGTSASLAISGLRSEDEADYYCAAWDDSLSSWVFGGGTKLTVL
On to B16, for which, in the test with BSA, the binding result is reported as “no binding (tested: 100 nM)”.

B17: T19 (antibody, V domains shown)
VH: EVQLLESGGGLVQPGGSLRLSCAASGFTFDNYGMSWVRQAPGKGLEWVSVISSGGVGTYYADSVKGRFIISRDNAKNTLYLQMNSLRAEDTAVYYCAKDLLRYESSGYSPWGQGTLVTVSS
VL: EIVLTQSPATLSLSPGDRATLSCRASQSVNTYLAWYQHKPGQAPRLLIYDASKRATGIPARFSGSGSGTDFTLTISSLEPEDFAVYYCQQRANRPPLTFGGGTKVEIK
B17: the binding result with BSA is recorded as “no binding (tested: 100 nM)”.

B18: T1 (antibody, V domains shown)
VH: EVQLVESGGGLEQPGRSLRLSCAASGFSFGDNAMTWFRQAPGKGLEWVGIIRAKGYGGTTEYAASVKGRFTISRDDSKSIAFLQMNNVKVEDTGVYYCAKYASGWEVGFDPWGQGTLVTVSS
VL: AIQMTQSPSSLSASVGDRVTITCRASQFIRNDLGWYQQKPGRAPKLLIYAASGLHSGVPARFSGNGSATDFTLTITSLQPEDFATYYCLQDYNFPWTFGQGTKVEIK
Consider B18, for which the binding result with BSA was “no binding (tested: 100 nM)”.

B19: T28 (antibody, V domains shown)
VH: QVQLQESGPGLVKPSETLSLSCAVSGGSIRGYSWSWIRQPPGKGLEWIADMLYTGTTTFNPSLKSRVTISVDTSKNQFSLKLTSVTAADTAVYYCARGPTVSGPIVVDYWGPGTLVTVSS
VL: NFMLTQPHSVSESPGKTVTISCTGSSGSIASNYVQWYQQRPGSAPTTLIYEDKQRPSGVPDRFSGSIDSSTNSASLTISGLKTEDEADYYCQSFDSSNRWVFGGGTKVTVL
Take B19: the binding result in the test with BSA is “no binding (tested: 100 nM)”.
